According to paper doi:10.1101/2021.04.12.439291 (bioRxiv, 2021):

B1: Ubc2 (yeast) (enzyme, Saccharomyces cerevisiae, UniProt P06104 1-172, looked up)
chain: MSTPARRRLMRDFKRMKEDAPPGVSASPLPDNVMVWNAMIIGPADTPYEDGTFRLLLEFDEEYPNKPPHVKFLSEMFHPNVYANGEICLDILQNRWTPTYDVASILTSIQSLFNDPNPASPANVEAATLFKDHKSQYVKRVKETVEKSWEDDMDDMDDDDDDDDDDDDDEAD

How the values were obtained:
Ubc2 (yeast) = biological target: B1; test: ITC
[1] = biological target: Ubr1 (yeast, FLAG-tagged) (Saccharomyces cerevisiae, UniProt P19812 1-1950); test: cryo-EM structure
Chain of Ubr1 (yeast, FLAG-tagged) (P19812 whole entry): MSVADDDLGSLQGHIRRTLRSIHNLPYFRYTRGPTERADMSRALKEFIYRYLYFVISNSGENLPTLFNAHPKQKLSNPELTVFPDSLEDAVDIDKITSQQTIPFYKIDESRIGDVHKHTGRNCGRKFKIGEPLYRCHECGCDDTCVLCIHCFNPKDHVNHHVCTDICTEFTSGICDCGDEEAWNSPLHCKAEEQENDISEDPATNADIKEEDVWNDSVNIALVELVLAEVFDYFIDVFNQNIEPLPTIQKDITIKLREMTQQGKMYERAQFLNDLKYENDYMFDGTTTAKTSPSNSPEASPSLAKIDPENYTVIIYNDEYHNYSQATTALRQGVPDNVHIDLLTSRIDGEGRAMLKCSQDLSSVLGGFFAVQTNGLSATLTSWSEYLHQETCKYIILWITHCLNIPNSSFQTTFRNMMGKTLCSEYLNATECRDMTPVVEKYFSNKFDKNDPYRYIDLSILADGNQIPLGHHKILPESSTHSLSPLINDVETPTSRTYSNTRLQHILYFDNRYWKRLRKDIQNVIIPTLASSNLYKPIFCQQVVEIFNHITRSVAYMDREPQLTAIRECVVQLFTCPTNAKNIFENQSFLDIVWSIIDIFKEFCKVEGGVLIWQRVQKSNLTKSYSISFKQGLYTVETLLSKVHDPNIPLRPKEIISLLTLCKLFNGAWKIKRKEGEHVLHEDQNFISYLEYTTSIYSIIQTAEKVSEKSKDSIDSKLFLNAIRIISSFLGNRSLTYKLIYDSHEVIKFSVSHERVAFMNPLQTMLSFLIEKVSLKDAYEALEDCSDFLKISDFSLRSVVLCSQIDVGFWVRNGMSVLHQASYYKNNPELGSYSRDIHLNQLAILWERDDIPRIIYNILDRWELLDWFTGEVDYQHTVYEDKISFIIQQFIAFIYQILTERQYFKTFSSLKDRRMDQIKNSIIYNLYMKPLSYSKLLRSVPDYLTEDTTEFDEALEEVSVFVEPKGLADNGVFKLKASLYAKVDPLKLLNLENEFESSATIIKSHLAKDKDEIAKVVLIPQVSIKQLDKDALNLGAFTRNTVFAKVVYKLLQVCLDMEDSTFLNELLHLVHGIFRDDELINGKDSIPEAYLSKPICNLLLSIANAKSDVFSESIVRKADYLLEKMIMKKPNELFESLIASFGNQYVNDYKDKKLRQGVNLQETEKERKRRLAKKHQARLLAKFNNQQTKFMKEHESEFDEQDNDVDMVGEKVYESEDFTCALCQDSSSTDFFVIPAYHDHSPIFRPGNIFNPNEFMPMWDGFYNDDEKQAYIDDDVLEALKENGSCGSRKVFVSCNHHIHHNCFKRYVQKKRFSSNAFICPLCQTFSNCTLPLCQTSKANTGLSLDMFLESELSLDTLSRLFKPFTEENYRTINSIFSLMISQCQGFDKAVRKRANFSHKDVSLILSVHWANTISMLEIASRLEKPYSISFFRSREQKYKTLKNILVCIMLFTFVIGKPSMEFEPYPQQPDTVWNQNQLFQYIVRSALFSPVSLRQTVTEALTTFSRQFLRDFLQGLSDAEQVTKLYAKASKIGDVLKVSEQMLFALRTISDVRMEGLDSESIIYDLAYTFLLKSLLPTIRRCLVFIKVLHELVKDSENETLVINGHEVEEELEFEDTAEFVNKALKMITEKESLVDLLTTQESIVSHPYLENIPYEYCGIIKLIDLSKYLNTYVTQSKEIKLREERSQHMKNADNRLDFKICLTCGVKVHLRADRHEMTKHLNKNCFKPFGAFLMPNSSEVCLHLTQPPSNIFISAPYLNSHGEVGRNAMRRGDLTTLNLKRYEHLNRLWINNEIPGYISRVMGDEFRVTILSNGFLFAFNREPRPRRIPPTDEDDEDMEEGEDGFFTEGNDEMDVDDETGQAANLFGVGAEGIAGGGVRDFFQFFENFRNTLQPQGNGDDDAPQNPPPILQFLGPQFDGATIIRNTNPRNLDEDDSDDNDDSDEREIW

Binder	Kd (Ubc2 (yeast))	binding result [1]
KERKRRLAKKHQARLLAKFNNQQTKFMKEHESEFDE (peptide, UniProt P19812 1165-1200, looked up) [U2BR peptide (Ubr1 1165-1200)]	143 ± 45 nM	
B1		binds
